Reference: US20240272170A1

Legend:
[1] = biological target: YRELRLLK after cleavage to N-terminal arginine (RELRLLK); experiment: on-chip single-molecule dynamic sequencing with PS610, PS961, PS621 and aminopeptidases; median of the RS mean PD distribution; panel YREL
[2] = biological target: YRELRLLK after cleavage to N-terminal arginine (RELRLLK); experiment: single-molecule dynamic sequencing on chip
[3] = biological target: T1, HA peptide (Octet assay of PS621 variants); experiment: Octet (BLI), 30 C
T1 sequence (peptide): HAKLDEESILKQK

[4] = biological target: IA peptide (Octet assay of PS557 variants); experiment: Octet (BLI), peptide on sensor, response after 200 s association
[5] = biological target: WA peptide (Octet assay of PS557 variants); experiment: as above
[6] = biological target: YA peptide (Octet assay of PS557 variants); experiment: as above
[7] = biological target: MA peptide (Octet assay of PS557 variants); experiment: as above
[8] = biological target: FA peptide (Octet assay of PS557 variants); experiment: as above
[9] = biological target: N-terminal alanine peptide (SNAP display selection); experiment: SNAP display, 4 rounds of selection on alanine peptide; NGS abundance in round 4 / naive library
[10] = biological target: IA peptide (Octet assay of PS557 variants); experiment: Octet (BLI), peptide on sensor, response after 200 s association; second PS829 row
[11] = biological target: MA peptide (Octet assay of PS557 variants); experiment: as above
[12] = biological target: FA peptide (Octet assay of PS557 variants); experiment: as above

Binder | Octet response [4] | Octet response [7] | Octet response [8] | further results
PS621 (protein) MHSKFSHAGRICGAKFKVGEPIYRCKECSFDDTCVLCVNCFNPKDHTGHHVYTTICTEFNNGICDCGDKEAWNHTLFCKAEEG | – | – | – | median RS mean PD [1]: 0.19 s; median interpulse duration (IPD) [2]: 10.1 s
PS1101 (designed binder) MHSKFSHAGRICGAKFKVREPIYRCKECSFDDTCVLCVNCFNPKDHTGHHVYTTICTEFNNGICDCGDKEAWNHTLFCKAEEG | – | – | – | Octet response [3]: 0.1
PS1116 (designed binder) MHSKFSHAGRICGAKFKVGEPIYRCKECSFDDTCVLCVNCFNPKDHTYHHVYTTICTEFNNGICDCGDKEAWNHTLFCKAEEG | – | – | – | Octet response [3]: 0.1
PS1112 (designed binder) MHSKFSHAGRICGAKFKVGEPIYRCKECSFDDTCVLCVNCFNPKDHTGHHVYTTICTEFNNGICDCGDKTAWNHTLFCKAEEG | – | – | – | Octet response [3]: 0.1
PS1111 (designed binder) MHSKFSHAGRICGAKFKVGEPIYRCKECSFDDTCVLCVNCFNPKDHTGHHVYTTICTEFNNGICDCGDKSAWNHTLFCKAEEG | – | – | – | Octet response [3]: 0.1
PS1103 (designed binder) MHSKFSHAGRICGAKFKVGEPIYRCKECSFDYTCVLCVNCFNPKDHTGHHVYTTICTEFNNGICDCGDKEAWNHTLFCKAEEG | – | – | – | Octet response [3]: 0.1
PS796 (designed binder) MPTAASATESAIEDTPAPARPEVDGRTKPKRQPRYHVVLWDDDDHTYQYVVVMLQSLFGHPPERGYRLAKEMDTQGRVIVLTTTREHAELKRDQIHAFGYDRLLARSKGSMKASIEAEE | 11.6 nm | 8.42 nm | 1.37 nm | Octet response [5]: 0.761 nm; Octet response [6]: 1.23 nm
PS808 (designed binder) MPTAASATESAIEDTPAPARPEVDGRTKPKRQPRYHVVLWNDDDHTYQYVVVMLRSLFGHPPERGYRLAKEVDTQGRVIVLTTTREHAELKRDQIHAFGYDRLLARSKGSMKASIEAEE | 9.27 nm | 1.88 nm | 0.00233 nm | Octet response [5]: 0.00243 nm; Octet response [6]: 0.0539 nm
PS797 (designed binder) MPTAASATESAIEDTPAPARPEVDGRTKPKRQPRYHVVLWDDDDHTYQYVVVMLQSLFGHPPERGYRLAKEMDTLGRVIVLTTTREHAELKRDQIHAFGYDRLLARSKGSMKASIEAEE | 11.6 nm | 8.71 nm | 0.202 nm | –
PS847 (designed binder) MPTAASATESAIEDTPAPARPEVDGRTKPKRQPRYHVVLWDDDDHTYQYVVVMLRSLFGHPPERGYRLAKEMDTQGRVIVLTTTREHAELKRDQIHAFGYDRLLARSKGSMKASIEAEE | 7.77 nm | 3.23 nm | 0.059 nm | Octet response [5]: 0.0098 nm; Octet response [6]: 0.0607 nm
PS838 (designed binder) MPTAASATESAIEDTPAPARPEVDGRTKPKRQPRYHVVLWDDDDHTYQYVVVMLQSLFGHPRERGYRLAKEMDTQGRVIVLTTTREHAELKRDQIHAFGYDRLLARSKGSMKASIEAEE | 11.2 nm | 8.09 nm | 0.377 nm | Octet response [5]: 0.0581 nm; Octet response [6]: 0.59 nm
PS831 (designed binder) MPTAASATESAIEDTPAPARPEVDGRTKPKRQPRYHVVLWNDDDHTYQYVVVMLQSLFGHPRKRGYRLAKEMDTLGRVIVLTTTREHAELKRDQIHAFGYDRLLARSKGSMKASIEAEE | 10.5 nm | 4.86 nm | 0.755 nm | –
PS557 mutant N41D, E63S, L68M, V72M, R106H (SNAP display clone) (designed binder, not shown: large carriers; small tags and cut ends, In the selection the protein carried an N-terminal SNAP tag covalently bound to benzylguanine on its own coding DNA; this is not in the letters.) MPTAASATESAIEDTPAPARPEVDGRTKPKRQPRYHVVLWDDDDHTYQYVVVMLQSLFGHPPSRGYRMAKEMDTQGRVIVLTTTREHAELKRDQIHAFGYDRLLAHSKGSMKASIEAEE | – | – | – | Enrichment [9]: 124
PS801/PS814 (designed binder) MPTAASATESAIEDTPAPARPEVDGRTKPKRQPRYHVVLWNDDDHTYQYVVVMLQSLFGHPPKRGYRLAKEVDTQGRVIVLTTTREHAELKRDQIHAFGYDRLLARSKGSMKASIEAEE | 9.02 nm | 1.75 nm | 0.00662 nm | Octet response [5]: 0.0148 nm; Octet response [6]: 0.054 nm
PS828 (designed binder) MPTAASATESAIEDTPAPARPEVDGRTKPKRQPRYHVVLWDDDDHTYQYVVVMLQSLFGHPRERGYRLAKEVDTLGRVIVLTTTREHAELKRDQIHAFGYDRLLARSKGSMKASIEAEE | 5.32 nm | 1.7 nm | 0.583 nm | –
PS798 (designed binder) MPTAASATESAIEDTPAPARPEVDGRTKPKRQPRYHVVLWNDDDHTYQYVVVMLQSLFGHPPERGYRLAKEMDTLGRVIVLTTTREHAELKRDQIHAFGYDRLLARSKGSMKASIEAEE | 12.7 nm | 9.37 nm | 1.41 nm | –
PS829 (designed binder) MPTAASATESAIEDTPAPARPEVDGRTKPKRQPRYHVVLWDDDDHTYQYVVVMLQSLFGHPRERGYRLAKEMDTLGRVIVLTTTREHAELKRDQIHAFGYDRLLARSKGSMKASIEAEE | 7.51 nm | 4.7 nm | 0.797 nm | Octet response [10]: 8.85 nm; Octet response [11]: 7.86 nm; Octet response [12]: 1.18 nm; Octet response [5]: 0.625 nm; Octet response [6]: 0.749 nm
PS557 mutant N41D, Q55R, P62Y, E63T, V72M, Y100R (SNAP display clone) (designed binder, part only, N-terminal SNAP tag) MPTAASATESAIEDTPAPARPEVDGRTKPKRQPRYHVVLWDDDDHTYQYVVVMLRSLFGHPYTRGYRLAKEMDTQGRVIVLTTTREHAELKRDQIHAFGRDRLLARSKGSMKASIEAEE | – | – | – | Enrichment [9]: 158
PS557 mutant N41D, Q55R, E63A, V72M, Y100R (SNAP display clone) (designed binder, not shown: large carriers; small tags and cut ends, In the selection the protein carried an N-terminal SNAP tag covalently bound to benzylguanine on its own coding DNA; this is not in the letters.) MPTAASATESAIEDTPAPARPEVDGRTKPKRQPRYHVVLWDDDDHTYQYVVVMLRSLFGHPPARGYRLAKEMDTQGRVIVLTTTREHAELKRDQIHAFGRDRLLARSKGSMKASIEAEE | – | – | – | Enrichment [9]: 154
PS557 mutant N41D, Q55R, E63S, L68M, V72M, Y100R (SNAP display clone) (designed binder, not shown: large carriers; small tags and cut ends, In the selection the protein carried an N-terminal SNAP tag covalently bound to benzylguanine on its own coding DNA; this is not in the letters.) MPTAASATESAIEDTPAPARPEVDGRTKPKRQPRYHVVLWDDDDHTYQYVVVMLRSLFGHPPSRGYRMAKEMDTQGRVIVLTTTREHAELKRDQIHAFGRDRLLARSKGSMKASIEAEE | – | – | – | Enrichment [9]: 166
PS830 (designed binder) MPTAASATESAIEDTPAPARPEVDGRTKPKRQPRYHVVLWDDDDHTYQYVVVMLQSLFGHPRKRGYRLAKEMDTLGRVIVLTTTREHAELKRDQIHAFGYDRLLARSKGSMKASIEAEE | 6.51 nm | 2.16 nm | 0.0339 nm | –
PS557 mutant N41D, Q55R, E63W, V72M, R106H (SNAP display clone) (designed binder, not shown: large carriers; small tags and cut ends, In the selection the protein carried an N-terminal SNAP tag covalently bound to benzylguanine on its own coding DNA; this is not in the letters.) MPTAASATESAIEDTPAPARPEVDGRTKPKRQPRYHVVLWDDDDHTYQYVVVMLRSLFGHPPWRGYRLAKEMDTQGRVIVLTTTREHAELKRDQIHAFGYDRLLAHSKGSMKASIEAEE | – | – | – | Enrichment [9]: 133
PS557 mutant N41D, Q55R, H60I, V72M (SNAP display clone) (designed binder, not shown: large carriers; small tags and cut ends, In the selection the protein carried an N-terminal SNAP tag covalently bound to benzylguanine on its own coding DNA; this is not in the letters.) MPTAASATESAIEDTPAPARPEVDGRTKPKRQPRYHVVLWDDDDHTYQYVVVMLRSLFGIPPERGYRLAKEMDTQGRVIVLTTTREHAELKRDQIHAFGYDRLLARSKGSMKASIEAEE | – | – | – | Enrichment [9]: 320
PS809 (designed binder) MPTAASATESAIEDTPAPARPEVDGRTKPKRQPRYHVVLWNDDDHTYQYVVVMLQSLFGHPPERGYRLAKEMDTQGRVIVLTTTREHAELKRDQIHAFGYDRLLARSKGSMKASIEAEE | 8.52 nm | 2.23 nm | 0.0032 nm | Octet response [5]: 0.0117 nm; Octet response [6]: 0.0027 nm
PS819 (designed binder) MPTAASATESAIEDTPAPARPEVDGRTKPKRQPRYHVVLWDDDDHTYQYVVVMLQSLFGHPPKRGYRLAKEMDTQGRVIVLTTTREHAELKRDQIHAFGYDRLLARSKGSMKASIEAEE | 9.06 nm | 3.75 nm | – | –
